B1: library; numbered along this chain (parent)
chain: MAAAAAAAAEQQSSNGPVKKSMREKAVERRSVNKEHNSNFKAGYIPIDEDRLHKTGLRGRKGNLAICVIILLFILAVINLIITLVIWAVIRIGPNGCDSMEFHESGLLRFKQVSDMGVIHPLYKSTVGGRRNENLVITGNNQPIVFQQGTTKLSVENNKTSITSDIGMQFFDPRTQNILFSTDYETHEFHLPSGVKSLNVQKASTERITSNATSDLNIKVDGRAIVRGNEGVFIMGKTIEFHMGGNMELKAENSIILNGSVMVSTTRLPSSSSGDQLGSGDWVRYKLCMCADGTLFKVQVTSQNMGCQISDNPCGNTH

Variants of: B1
Assay: SGCB cell-surface expression functional score (HA stain, bin4 vs bin1, normalised to synonymous) (log10 ratio); higher = more cell-surface SGCB (functional)
Procedure: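 Deep mutational scan of full-length human SGCB (YFP-SGCB-HA, NNN codon sublibraries A-F) delivered by lentivirus at low MOI into ADG-HEK293 cells stably expressing SGCA, SGCD and SGCG. YFP-positive cells were stained for surface HA on unpermeabilized cells and FACS-sorted into bins. The functional score is log10(frequency in high bin 4 / frequency in low bin 1), normalised per chunk so that synonymous variants have mean 0 and SD 0.5. Scores are the median over codons and over duplicate biological replicates; scores below -0.5 are called non-functional. Scale: negative means deleterious.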

Variant | SGCB cell-surface expression functional score (log10)
MAAAAAAAAEQQSSNGPVKKSMREKAVERRSVNKEHNSNFKAGYIPIDEDRLHKTGLRGRKGNLAICVIILLFILAVINLIITLVIWAVIRIGPNGCDSMEFHESGLLRFKQVSDMGVIHPLYKSTVGGRRNENLVITGNNQPIVFQQGTTKLSVENNKTSITSDIGMQFFDPRTQNILFSTDYETHEFHLPSGVKSLNVQKASTERITSNATSDLNIKVDGRAIVRGNEGVFIMGRTIEFHMGGNMELKAENSIILNGSVMVSTTRLPSSSSGDQLGSGDWVRYKLCMCADGTLFKVQVTSQNMGCQISDNPCGNTH [K237R] | 0.73
MAAAAAAAAEQQSSNGPVKKSMREKAVERRSVNKEHNSNFKAGYIPIDEDRLHKTGLRGRKGNLAICVIILLFILAVINLIITLVIWAVIRIGPNGCDSMEFHESGELRFKQVSDMGVIHPLYKSTVGGRRNENLVITGNNQPIVFQQGTTKLSVENNKTSITSDIGMQFFDPRTQNILFSTDYETHEFHLPSGVKSLNVQKASTERITSNATSDLNIKVDGRAIVRGNEGVFIMGKTIEFHMGGNMELKAENSIILNGSVMVSTTRLPSSSSGDQLGSGDWVRYKLCMCADGTLFKVQVTSQNMGCQISDNPCGNTH [L107E] | -1.14
MAAAAAAAAEQQSSNGPVKKSMREKAVERRSVNKEHNSNFKAGYIPIDEDRLHKTGLRGRKGNLAICVIILLFILAVINLIITLVIWAVIRIGPNGCDSMEFHESGLLRFKQVSDMGVIHPLYKSTVGGRRNPNLVITGNNQPIVFQQGTTKLSVENNKTSITSDIGMQFFDPRTQNILFSTDYETHEFHLPSGVKSLNVQKASTERITSNATSDLNIKVDGRAIVRGNEGVFIMGKTIEFHMGGNMELKAENSIILNGSVMVSTTRLPSSSSGDQLGSGDWVRYKLCMCADGTLFKVQVTSQNMGCQISDNPCGNTH [E133P] | -1
MAAAAAAAAEQQSSNGPVKKSMREKAVERRSVNKEHNSNFKAGYIPIDEDRLHKTGLRGRKGNLAICVIILLFILAVINLIITLVIWAVIRIGPNGCDSMEFHESGLLRFKQVSDMGVIHPLYKSTVGGRRNENLVITGNNQPIVFQQGTTKLSVENNKTSITSDIGMQFFDPRTQNILMSTDYETHEFHLPSGVKSLNVQKASTERITSNATSDLNIKVDGRAIVRGNEGVFIMGKTIEFHMGGNMELKAENSIILNGSVMVSTTRLPSSSSGDQLGSGDWVRYKLCMCADGTLFKVQVTSQNMGCQISDNPCGNTH [F180M] | -1.82
MAAAAAAAAEQQSSNGPVKKSMREKAVERRSVNKEHNSNFKAGYIPIDEDRLHKTGLRGRKGNLAICVIILLFILAVINLIITLVIWAVIRIGPNGCDSMEFDESGLLRFKQVSDMGVIHPLYKSTVGGRRNENLVITGNNQPIVFQQGTTKLSVENNKTSITSDIGMQFFDPRTQNILFSTDYETHEFHLPSGVKSLNVQKASTERITSNATSDLNIKVDGRAIVRGNEGVFIMGKTIEFHMGGNMELKAENSIILNGSVMVSTTRLPSSSSGDQLGSGDWVRYKLCMCADGTLFKVQVTSQNMGCQISDNPCGNTH [H103D] | 0
MAAAAAAAAEQQSSNGPVKKGMREKAVERRSVNKEHNSNFKAGYIPIDEDRLHKTGLRGRKGNLAICVIILLFILAVINLIITLVIWAVIRIGPNGCDSMEFHESGLLRFKQVSDMGVIHPLYKSTVGGRRNENLVITGNNQPIVFQQGTTKLSVENNKTSITSDIGMQFFDPRTQNILFSTDYETHEFHLPSGVKSLNVQKASTERITSNATSDLNIKVDGRAIVRGNEGVFIMGKTIEFHMGGNMELKAENSIILNGSVMVSTTRLPSSSSGDQLGSGDWVRYKLCMCADGTLFKVQVTSQNMGCQISDNPCGNTH [S21G] | 0.23
MAAACAAAAEQQSSNGPVKKSMREKAVERRSVNKEHNSNFKAGYIPIDEDRLHKTGLRGRKGNLAICVIILLFILAVINLIITLVIWAVIRIGPNGCDSMEFHESGLLRFKQVSDMGVIHPLYKSTVGGRRNENLVITGNNQPIVFQQGTTKLSVENNKTSITSDIGMQFFDPRTQNILFSTDYETHEFHLPSGVKSLNVQKASTERITSNATSDLNIKVDGRAIVRGNEGVFIMGKTIEFHMGGNMELKAENSIILNGSVMVSTTRLPSSSSGDQLGSGDWVRYKLCMCADGTLFKVQVTSQNMGCQISDNPCGNTH [A5C] | 0.11
MAAAAAAAAEQQSSNGPVKKSMREKAVERRSVNKEHNSNFKAGYIPIDEDRLHKTGLRGRKGNLAICVIILLFILAVINLIITLVIWAVIRIGPNGCDSMEFHESGLLRFKQVSDMGVIHPLYKSTVGGRRNENLVITGNNQPIVFQQGTTKLSVENNKTSITSDPGMQFFDPRTQNILFSTDYETHEFHLPSGVKSLNVQKASTERITSNATSDLNIKVDGRAIVRGNEGVFIMGKTIEFHMGGNMELKAENSIILNGSVMVSTTRLPSSSSGDQLGSGDWVRYKLCMCADGTLFKVQVTSQNMGCQISDNPCGNTH [I166P] | -1.11
MAAAAAAAAEQQSSNGPVKKSMREKAVERRSVNKEHNSNFKAGYIPIDEDRLHKTGLRGRKGNLAICVIILLFILAVINLIITLVIWAVIRIGPNGCDSMEFHESGLLRFKQVSDMGVIHPLYKSTVGGRRNENLVITGNNQPIVFQQGTTKLSVENNKTSITSDIGMQFFDPRTQNILFSTDYETHEFHLPSGVKSLNVQKASTERITSNATSDLNIKVDGRAIVRGNEGVFIMGKTIEFHMGCNMELKAENSIILNGSVMVSTTRLPSSSSGDQLGSGDWVRYKLCMCADGTLFKVQVTSQNMGCQISDNPCGNTH [G245C] | 0.61
MAAAAAAAAEQQSSNGPVKKSMREKAVERRSVNKEHNSNFKAGYIPIDEDRLHKTGLRGRKGNLAICVIILLFILAVINLIITLVIWAVIRIGPNGCDSMEFHESGLLRFKQVSDMGVIHPLYKSTVGGRRNENLVITGNNQPIVFQQGTTKLSVENNKTSITSDIGMQFFDPHTQNILFSTDYETHEFHLPSGVKSLNVQKASTERITSNATSDLNIKVDGRAIVRGNEGVFIMGKTIEFHMGGNMELKAENSIILNGSVMVSTTRLPSSSSGDQLGSGDWVRYKLCMCADGTLFKVQVTSQNMGCQISDNPCGNTH [R174H] | -0.58
MAAAAAAAAEQQSSNGPVKKSMREKAVERRSVNKEHNSNFKAGYIPIDEDRLHKTGYRGRKGNLAICVIILLFILAVINLIITLVIWAVIRIGPNGCDSMEFHESGLLRFKQVSDMGVIHPLYKSTVGGRRNENLVITGNNQPIVFQQGTTKLSVENNKTSITSDIGMQFFDPRTQNILFSTDYETHEFHLPSGVKSLNVQKASTERITSNATSDLNIKVDGRAIVRGNEGVFIMGKTIEFHMGGNMELKAENSIILNGSVMVSTTRLPSSSSGDQLGSGDWVRYKLCMCADGTLFKVQVTSQNMGCQISDNPCGNTH [L57Y] | 0.49
MAAAAAAAAEQQSSNGPVKKSMREKAVERRSVNKEHNSNFKAGYIPIDEDRLHKTGLRGRKGNLAICVIILLFILAVINLIITLVIWAVIRIGPNGCDSMEFHESGLLRFKQVSDMGVIHPLYKSTVGGRRNENLVITGNNQPIVFQQGTLKLSVENNKTSITSDIGMQFFDPRTQNILFSTDYETHEFHLPSGVKSLNVQKASTERITSNATSDLNIKVDGRAIVRGNEGVFIMGKTIEFHMGGNMELKAENSIILNGSVMVSTTRLPSSSSGDQLGSGDWVRYKLCMCADGTLFKVQVTSQNMGCQISDNPCGNTH [T151L] | -1.22
MAAAAAAAAEQQSSNGPVKKSMREKAVERRSVNKEHNSNFKAGYIPIDEDRLHKTGLRGRKGNLAICVIILLFILAVINLIITLVIWAVIRIGPNGCDSMEFHESGLLRFKQVSDMGVIHPLYKSTVGGRRNENLVITGNNQPIVFQQGTTKLSVENNKTSITSDIGMQFFDPRTQNILFSTDYETHEFHLPSGVKSLNVQKASTERITSNATSDLNIKVDGRAIVRGNEGMFIMGKTIEFHMGGNMELKAENSIILNGSVMVSTTRLPSSSSGDQLGSGDWVRYKLCMCADGTLFKVQVTSQNMGCQISDNPCGNTH [V232M] | 0.68
MAAAAAAAAEQQSSNGPVKKSMREKAVERRSVNKEHNSNFKAGYIPIDEDRLHKTGLRGRKGNLAICVIILLFILAVINLIITLVIWAVIRIGPNGCDSMEFHESGLLRFKQVSDMGVIHPLYKSTVGGRRNENLVITGNNQPIVFQQGTTKLSVENNKTSITSDIGMQFFDPRTQNILFSTDYETHEFHLPSGVKSLNVQKASTERITSNGTSDLNIKVDGRAIVRGNEGVFIMGKTIEFHMGGNMELKAENSIILNGSVMVSTTRLPSSSSGDQLGSGDWVRYKLCMCADGTLFKVQVTSQNMGCQISDNPCGNTH [A212G] | 0.11
MAAAAAAAAEQQSSNGPVKKSMREKAVERRSVNKEHNSNFKAGYIPIDEDRLHKTGLRGRKGNLAICVIILLFILAVINLIITLVIWAVIRIGPNGCDSMEFHESGLLRFKQVSDMGVIHPLYKSTVGGRRNENLVITGNNQPIVFQQGTTKLSVENNKTSITSDIGMQFFDPRTQNILFSTDYETHEFHLPSGVKSLNVQKASTERITSNATSDLNIKVDGRAIVRGNEGVFIMGKTIEFHMGGNMELKAENSIIRNGSVMVSTTRLPSSSSGDQLGSGDWVRYKLCMCADGTLFKVQVTSQNMGCQISDNPCGNTH [L257R] | -1.52
MAAAAAAAAEQQSSNGPVKKSMREKAVERRSVNKEHNSNFKAGYIPIDEDRLHKTGLRGRKGNLAICVIILLFILAVINLIITLVIWAVIRIGPNGCDSMEFHESGLLRFKQVSDMGVIHPLYKSTVGGRRNENLVITGNNQPMVFQQGTTKLSVENNKTSITSDIGMQFFDPRTQNILFSTDYETHEFHLPSGVKSLNVQKASTERITSNATSDLNIKVDGRAIVRGNEGVFIMGKTIEFHMGGNMELKAENSIILNGSVMVSTTRLPSSSSGDQLGSGDWVRYKLCMCADGTLFKVQVTSQNMGCQISDNPCGNTH [I144M] | -0.89
MAAAAAAAAEQQSSNGPVKKSMREKAVERRSVNKEHNSNFKAGYIPIDEDRLHKTGLRGRKGNLAICVIILLFILAVINLIITLVIWAVIRTGPNGCDSMEFHESGLLRFKQVSDMGVIHPLYKSTVGGRRNENLVITGNNQPIVFQQGTTKLSVENNKTSITSDIGMQFFDPRTQNILFSTDYETHEFHLPSGVKSLNVQKASTERITSNATSDLNIKVDGRAIVRGNEGVFIMGKTIEFHMGGNMELKAENSIILNGSVMVSTTRLPSSSSGDQLGSGDWVRYKLCMCADGTLFKVQVTSQNMGCQISDNPCGNTH [I92T] | -1.03
MAAAAAAAAEQQSSNGPVKKSMREKAVERRSVNKEHNSNFKAGYIPIDEDRLHKTGLRGRKGNLAICVINLLFILAVINLIITLVIWAVIRIGPNGCDSMEFHESGLLRFKQVSDMGVIHPLYKSTVGGRRNENLVITGNNQPIVFQQGTTKLSVENNKTSITSDIGMQFFDPRTQNILFSTDYETHEFHLPSGVKSLNVQKASTERITSNATSDLNIKVDGRAIVRGNEGVFIMGKTIEFHMGGNMELKAENSIILNGSVMVSTTRLPSSSSGDQLGSGDWVRYKLCMCADGTLFKVQVTSQNMGCQISDNPCGNTH [I70N] | 0.07
MAAAAAAAAEQQSSNGPVKKSMREKAVERRSVNKEHNSNFKAGYIPIDEDRLHKTGLRGRKGNLAICVIILLFILAVINLIITLVIWYVIRIGPNGCDSMEFHESGLLRFKQVSDMGVIHPLYKSTVGGRRNENLVITGNNQPIVFQQGTTKLSVENNKTSITSDIGMQFFDPRTQNILFSTDYETHEFHLPSGVKSLNVQKASTERITSNATSDLNIKVDGRAIVRGNEGVFIMGKTIEFHMGGNMELKAENSIILNGSVMVSTTRLPSSSSGDQLGSGDWVRYKLCMCADGTLFKVQVTSQNMGCQISDNPCGNTH [A88Y] | 0.01
